Data: ChEMBL document CHEMBL1140019, “Primary amides as selective inhibitors of cathepsin K” (Bioorg Med Chem Lett, 2007)

What was measured:
Conditions in all cases: Homo sapiens
[1] = substrate: CSCC[C@H](NC(=O)[C@H](CC(C)C)N[C@@H](c1ccc(-c2ccc(S(C)(=O)=O)cc2)cc1)C(F)(F)F)C(N)=O; assay: (§1) Ratio of Kcat to Km for humanized rabbit cathepsin K; design: unit not given here
[2] = substrate: Cc1cc(=O)oc2cc(NC(=O)[C@H](CCCN=C(N)N)NC(=O)[C@H](CC(C)C)NC(=O)OCc3ccccc3)ccc12; assay: as §1; design: unit not given here
[3] = substrate: CC(C)C[C@H](N[C@@H](c1ccc(-c2ccc(S(C)(=O)=O)cc2)cc1)C(F)(F)F)C(=O)NCC(N)=O; assay: as §1; design: unit not given here
[4] = substrate: CC(C)C[C@H](N[C@@H](c1ccc(-c2ccc(S(C)(=O)=O)cc2)cc1)C(F)(F)F)C(=O)N[C@@H](C)C(N)=O; assay: as §1; design: unit not given here
[5] = substrate: CSCC[C@H](NC(=O)[C@H](CC(C)C)N[C@@H](c1ccc(-c2ccc(S(C)(=O)=O)cc2)cc1)C(F)(F)F)C(N)=O; assay: (§2) Activity of humanized rabbit cathepsin K at 25 uM
[6] = substrate: Cc1cc(=O)oc2cc(NC(=O)[C@H](CCCN=C(N)N)NC(=O)[C@H](CC(C)C)NC(=O)OCc3ccccc3)ccc12; assay: as §2
[7] = substrate: CC(C)C[C@H](N[C@@H](c1ccc(-c2ccc(S(C)(=O)=O)cc2)cc1)C(F)(F)F)C(=O)NCC(N)=O; assay: as §2
[8] = substrate: CC(C)C[C@H](N[C@@H](c1ccc(-c2ccc(S(C)(=O)=O)cc2)cc1)C(F)(F)F)C(=O)N[C@@H](C)C(N)=O; assay: as §2

B1: Cathepsin K (Homo sapiens), P43235 (protein)
chain: MWGLKVLLLPVVSFALYPEEILDTHWELWKKTHRKQYNNKVDEISRRLIWEKNLKYISIHNLEASLGVHTYELAMNHLGDMTSEEVVQKMTGLKVPLSHSRSNDTLYIPEWEGRAPDSVDYRKKGYVTPVKNQGQCGSCWAFSSVGALEGQLKKKTGKLLNLSPQNLVDCVSENDGCGGGYMTNAFQYVQKNRGIDSEDAYPYVGQEESCMYNPTGKAAKCRGYREIPEGNEKALKRAVARVGPVSVAIDASLTSFQFYSKGVYYDESCNSDNLNHAVLAVGYGIQKGNKHWIIKNSWGENWGNKGYILMARNKNNACGIANLASFPKM
kcat/Km [1]: 0.54 | kcat/Km [2]: 0.04 | kcat/Km [3]: 0.19 | kcat/Km [4]: 0.26 | kcat [5]: 3.25 s⁻¹ | Km [6]: 2 µM | kcat [6]: 79 s⁻¹ | Km [7]: 0.119 µM | kcat [7]: 23.2 s⁻¹ | Km [8]: 0.087 µM | kcat [8]: 23.2 s⁻¹
